Measured values: patent publication US20250215092A1 (ZHEJIANG NANOMAB TECHNOLOGY CENTER, published 2025)

Tests used:
[1] = target: T1, EGFR on SKOV3 and Aspc-1 tumor cells (human, UniProt P00533); assay: flow cytometry on SKOV3 tumor cells, anti-human IgG PE, MFI, curve fit; unit from the concentration axis and paragraph 62 [table]
T1 construct: endogenous, on the cell surface; the cell line is named under assay; also called tumor cell EGFR
Description: Two kinds of tumor cells, SKOV3 and Aspc-1, expressing EGFR were respectively plated in 96 well plates, with 3×10⁵ cells per well, and then the tumor cells were incubated with gradient diluted VHH-IgG4 antibody. After incubation on ice for half an hour, anti human IgG PE (Jackson Immuno Research, Code: 109-117-008, Lot:145501) was added for incubation, and then CytoFLEX flow cytometry was used for detection. The EC50 of the antibody was calculated by curve fitting.

[2] = target: T2, Region III of EGFR expressed on HEK293T cells (human, UniProt P00533); assay: flow cytometry on HEK293T cells expressing EGFR region III, anti-human IgG PE, MFI, curve fit; unit from the concentration axis and paragraph 62 [table]
T2 construct: also called HEK293T EGFR-III cells; stably transformed cell line 293T overexpressing EGFR III region protein
Description: HEK293T cells that express Region III of EGFR (i.e., HEK293T […] cells) were plated in a 96-well plate with 3×10⁵ cells/well, and then HEK293T […] cells were incubated with gradient diluted VHH-IgG4 antibody. After incubation for half an hour, anti-human IgG PE (Jackson Immuno Research, Code: 109-117-008, Lot:145501) as the secondary antibody for detection was added for incubation, and then CytoFLEX flow cytometer was used for detection. The EC50 of the antibody was calculated by curve fitting with Graphprism8.0 software. Isotype 1 in the figure is a negative control, and its amino acid sequence is shown as SEQ ID NO: 2 in CN106046152A.

[3] = target: T3, Rhesus macaque EGFR Protein, His Tag (Acro, Cat #EGR-C52H1) (rhesus macaque, UniProt P55245 25-645); assay: ELISA, coated antigen 1 ug/mL, antibody 50 nM
T3 construct: extracellular domain; Bought protein; also called Monkey EGFR; not shown: His tag
Description: (§1) ELISA was used to identify the binding of VHH-IgG4 antibodies to the extracellular domains of mouse EGFR, monkey EGFR, and human EGFR proteins. The detection steps were as follows: Mouse EGFR Protein, His Tag (Acro, Cat #EGR-M5224) and Rhesus macaque EGFR Protein, His Tag (Acro, Cat #EGR-C52H1) were diluted to 1 μg/mL with phosphate buffer, and 100 μL of each dilution was added to a 96-well ELISA plate and coated overnight at 4° C. The next day, the plates were washed twice with PBST (containing 0.5% TWEEN-20) and then blocked with 3% BSA at 37° C. for 1.5 h, followed by two washes with PBST. VHH-IgG4 antibodies were diluted to 50 nM, and 100 μL of the dilution was added to each well and incubated at 37° C. for 1 h. The plates were then washed three times with PBST, and 100 μL of HRP-labeled goat anti-human IgG Fc antibody (1:10000, Bethyl) was added to each well and incubated at 37° C. for another 40 min. After washing the plates four times with PBST, 100 μL of TMB substrate was added to each well, and the reaction was allowed to proceed for 3-5 min. The reaction was stopped by adding 100 μL of 3N hydrochloric acid per well. After stopping the reaction, the optical density at 450/650 nm was measured using a Tecan microplate reader.

[4] = target: T4, Mouse EGFR Protein, His Tag (Acro, Cat #EGR-M5224) (mouse, UniProt Q01279 25-647); assay: ELISA, coated antigen 1 ug/mL, antibody 50 nM
T4 construct: extracellular domain; Bought protein; not shown: His tag
Description: as §1

[5] = target: T5, EGFR-D1D2 (L25-A310, P00533-1 (uniprot)) his tag antigen (human, UniProt P00533 25-310); assay: ELISA: EGFR-D1D2 his tag antigen coated at 0.5 µg/mL, antibody at 2000, 200, 20, 2 nM, HRP goat anti-human IgG Fc, OD450
T5 construct: range 25-310; also called I+II domain protein; EGFR-D1D2 protein; not shown: His tag
Description: (2) Protein Binding Epitope Analysis: ELISA was used to determine the binding of VHH-IgG4 antibody to each domain of EGFR extracellular protein. Briefly, EGFR his tag protein, and EGFR-V3-his tag antigen protein were diluted to 1 μg/mL, EGFR-D1D2 (L25-A310, P00533-1 (uniprot)), and EGFR-D4 (F481-S645, P00533-1 (uniprot)) his tag antigen were diluted to 0.5 μg/mL, and each well of an ELISA plate was coated with […] antigen and incubated overnight at 4° C. The next day, the plates were washed twice with PBST (added with 0.5% TWEEN-20), then blocked with 3% BSA at 37° C. for 1.5 h, and then washed twice with PBST. Then, the antibody to be tested was diluted to 50 nM, 5 nM, 0.5 nM, 0.05 nM, and added to the wells coated with EGFR his tag protein or EGFR-V3-his tag antigen at 100 µL/well, respectively. The antibody was diluted to 2000 nM, 200 nM, 20 nM, 2 nM, and added to the wells coated with EGFR his tag protein or EGFR-V3-his tag antigen at 100 µL/well, respectively. The ELISA plates were incubated at 37° C. for 1 h. The plates were then washed three times with PBST, and then 100 μL HRP labeled Goat anti human IgG Fc antibody (1:10000, Bethyl) was added into each well, and incubated at 37° C. for another 40 min. After washing the plates four times with PBST, 100 μL of TMB substrate was added to each well, and the reaction was allowed to proceed for 3-5 min. The reaction was stopped by adding 100 μL of 3N hydrochloric acid per well. After stopping the reaction, the optical density at 450/650 nm was measured using a Tecan microplate reader.

[6] = target: T6, human EGFR.His antigen (Acro, Cat #EGR-H522a) (human, UniProt P00533 25-645); assay: SPR, antibody captured on protein A, EGFR.His in flow
T6 construct: extracellular domain; Bought protein; also called EGFR his tag protein; full-length EGFR extracellular domain protein; not shown: His tag
Description: The binding kinetics and affinity of candidate antibody to human EGFR.His antigen were determined using surface plasmon resonance (SPR). The purified antibody was flowed through the sensor chips pre-immobilized with protein A, and the antibody was captured by protein A. Then five different concentrations of EGFR.His protein were used as the mobile phase, and the binding time and dissociation time were […], respectively. The binding rate (kon), dissociation rate (koff), and equilibrium constant (kD) were analyzed using Biacore Evaluation Software 2.0 (GE). EC225, an antibody that binds to region III of human EGFR, was selected as a positive control (sequence source https.//go.drugbank.com/drugs/DB00002).

Binder	EC50 [1]	EC50 [2]	OD450 [3]	OD450 [4]	binding result [5]	Kd [6]	koff [6]	kon [6]
E005 VHH-IgG4 antibody (antibody, V domains shown, VHH fused to IgG4 (VHH-IgG4), expressed in ExpiCHO, protein A purified; not shown: human IgG4 constant part from the pCDNA3.4-IgG4 vector) VH: QVQLVESGGGLVQPGGSLRLSCEASGFAFSDYTMRWHRQAAGKELELVAYITSAGDIIKYANSVRGRFTISRDNAKNTLYLQMDSLKPEDTAVYRCNALVSASVRASDYWGQGTLVTVSS	9.7 nM	0.98 nM	3.19 OD450	3.33 OD450	no binding (tested: 2000 nM)	2.86 nM	4.67e-05 s⁻¹	16400 M⁻¹ s⁻¹
E007 VHH-IgG4 antibody (antibody, V domains shown, not shown: a dimerising Fc or GST) VH: EVQLVESGGGLVQPGGSLRLSCEASGFSFSDHTMRWHRQAAGKNLELVAYITPAGDIIKYADSVQGRFTISRDNAKNMLYLQMDSLRPDDTAVYRCNALVSAAVRASDYWGQGTQVTVSS	14 nM	0.47 nM	3.35 OD450	3.21 OD450	no binding (tested: 2000 nM)	0.292 nM	1.08e-05 s⁻¹	37100 M⁻¹ s⁻¹
E004 VHH-IgG4 antibody (antibody, V domains shown, not shown: a dimerising Fc or GST) VH: EVQLVESGGGLAQSGGSLRLACEASGFPFETYAMSWARQTPGNEPEWVAGIFPDGKHTAYAHSVKGRFTISRVNANNTVYLQMDSLKPEDTAVYYCAKDLPFFATPSFYIGYWGQGTLVTVSS		0.39 nM	3.64 OD450	3.37 OD450	no binding (tested: 2000 nM)	5.17 nM	0.000776 s⁻¹	150000 M⁻¹ s⁻¹

Binders with a lower EC50 [2], results first:

EC50 [1]	EC50 [2]	OD450 [3]	OD450 [4]	binding result [5]	Kd [6]	koff [6]	kon [6]	Binder
6.5 nM	0.36 nM	3.15 OD450	2.8 OD450	no binding (tested: 2000 nM)	4.68 nM	0.000133 s⁻¹	28400 M⁻¹ s⁻¹	E003 VHH-IgG4 antibody (antibody, V domains shown, not shown: a dimerising Fc or GST) VH: QVQLVESGGGLVQPGGSLRLSCVASGGVFSSYAMGWYRQVPGKLRELVATITSGHSTTYADIVRGRFTISRDNTKNTVYLQMNRLEPDDTAVYYCNRSPYTPGNWGQGTLVTVSS
1.1 nM	0.18 nM	3.68 OD450	0.72 OD450	no binding (tested: 2000 nM)	9.62 nM	0.0148 s⁻¹	1.53e+06 M⁻¹ s⁻¹	E008 VHH-IgG4 antibody (antibody, V domains shown, VHH fused to IgG4 (VHH-IgG4), expressed in ExpiCHO, protein A purified; not shown: human IgG4 constant part from the pCDNA3.4-IgG4 vector) VH: EVQVVESGGGLVQSGGSLTLSCTSSGLPLLDYAIGWFRQAPGKEREAVSAISISEGSTYYTDSVRGRFTISRDNNKNKVYLRMDNLKPEDTAVYYCAADKTDIGFWLLVGGAGGGEVRYEYWGQGTQVTVSS
2.3 nM	0.095 nM	3.06 OD450	2.73 OD450	no binding (tested: 2000 nM)	2.49 nM	0.000121 s⁻¹	48500 M⁻¹ s⁻¹	E002 VHH-IgG4 antibody (antibody, V domains shown, VHH fused to IgG4 (VHH-IgG4), expressed in ExpiCHO, protein A purified; not shown: human IgG4 constant part from the pCDNA3.4-IgG4 vector) VH: QVQLVESGGGLVQAGGSLRLSCAASGFTFSDYAVSWYRQAPGKEREFVARITGTGETSRYEDSVKGRFAISRDNVKNTAYLQMNSLKPEDTAVYYCSIYHPPRDYWGQGTQVTVSS
